Legend:
[1] = Brain clearance technique: clearance of radiolabelled tracer from brain ISF and across the BBB after microinjection into the caudate nucleus; format: in vivo; details: for clearance from the brain ISF: 40 nM tracer microinjected into brain ISF, FIG. 1A/1B
Procedure: The brain clearance technique was used to determine Aβ clearance across the BBB and from CSF, as previously described (Shibata et al., 2000; Deane et al., 2004). Briefly, 0.5 μl of ^125I-Aβ42 (40 nM), ^125I-apoJ (40 nM) or ^125I-Aβ-apoJ (40 nM) was microinjected into the caudate nucleus simultaneously with ^14C-inulin (an inert reference molecule as an index of interstitial fluid (ISF) bulk flow) and, after 30 minutes (a typical time point unless stated), the brain was removed and radiolabel was counted.
^125I-Aβ-apoJ complex was prepared by incubating ^125I-Aβ42 and apoJ at a molar ratio of 15 to 1 (^125I-Aβ42: apoJ) at 37° C. for 3 hours, and excess ^125I-Aβ42 was removed by ultrafiltration with a 30 kD molecular weight cut-off membrane.
(§1) Percentage ^125I-(TCA precipitable) recovery in brain=NB/NI×100. Where NB is the ^125I-(TCA precipitable) recovered in brain and NI is the ^125I-(TCA precipitable) injected into brain ISF or CSF. Total ^125I-(TCA precipitable) clearance from brain ISF consists of two components: clearance across the BBB and clearance via bulk flow of ISF. Therefore, clearance across the BBB was calculated from the difference between total ^125I-(TCA precipitable) clearance and ^14C-inulin clearance (ISF bulk flow) as described (Shibata et al., 2000). Similarly, the percentage ^125I-(TCA precipitable) recovery in brain after microinjection into the CSF=NB/NI×100.

[2] = CSF clearance study: microinjection into the lateral ventricle; format: in vivo; details: 40 nM; after 30 minutes; microinjection into the lateral ventricles; FIG. 1E
Procedure: In the CSF clearance studies, 0.5 μl of ^125I-apoJ (40 nM) was micro-injected into the right lateral ventricles (coordinates (mm) from bregma: antero-posterior −0.5, mediolateral +1.0, dorsoventral −2.2) simultaneously with ^14C-inulin (the inert reference molecule), the brain was removed after 30 minutes, and radiolabel was counted.
as §1

[3] = after microinjection into the brain, FIG. 1C

| Substance | clearance of ^125I-Aβ42 across the BBB ([1]; in vivo) | clearance via the ISF bulk flow ([1]; in vivo) | clearance from the brain ISF [1] | clearance from brain relative to ^125I-Aβ42 (40 nM) ([1]; 40 nM, time-dependent clearance, FIG. 1B) | levels in plasma, compared to inulin [1, 3] | time dependent appearance of TCA precipitable radioactivity in CSF, compared to ^14C-inulin [1, 3] | clearance from the CSF as compared to ^14C-inulin [2] |
| --- | --- | --- | --- | --- | --- | --- | --- |
| ^125I-Aβ42: amyloid-β peptide Aβ42, amyloidogenic with high β-sheet content, radioiodinated tracer [reference compound] | 22%±2% | no a significant change |  |  |  |  |  |
| ^125I-apoJ: apolipoprotein J, an 80 kDa sulfated glycoprotein, ligand of LRP2, radioiodinated tracer |  |  | rapidly cleared | substantially faster | relatively increased | decreased | rapidly cleared |
| inulin [^14C-inulin, reference compound] |  |  | slowly removed |  |  |  |  |

— patent US20090156525A1, “Low-Density Lipoprotein Receptor-Related Protein 2 Clears Amyloid-Beta Peptide A cross the Blood-Brain Barrier via Apolipoprotein J” (priority 2005, published 2009)
